Source: patent US20230322953A1 (HARBOUR BIOMED SHANGHAI, published 2023)
Read-outs that look alike come from different tables or passages of the source.

Assays:
[1] = biological target: T1, human BCMA on NCI-H929 cells (ATCC, CRL-9068) (human, UniProt Q02223 1-184); assay: cell-based or functional assay
T1 sequence (looked up): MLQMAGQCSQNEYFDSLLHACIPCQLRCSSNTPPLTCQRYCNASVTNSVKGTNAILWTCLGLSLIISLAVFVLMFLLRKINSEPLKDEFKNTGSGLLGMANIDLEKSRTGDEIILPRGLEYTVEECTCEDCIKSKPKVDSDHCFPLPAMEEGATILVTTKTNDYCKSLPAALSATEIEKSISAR

[2] = biological target: T1, human BCMA on NCI-H929 cells (ATCC, …); assay: cell-based or functional assay; remark: listed apart in the source
[3] = biological target: T1, human BCMA on NCI-H929 cells (ATCC, …); assay: cell-based or functional assay; remark: listed apart in the source
[4] = biological target: T2, cynomolgus monkey BCMA (ACRO Biosystems, #BCA-C82F4) (cynomolgus monkey, UniProt A0A2K5UD97 1-53); assay: BLI (Octet Red96e), cyBCMA.Fc
T2 construct: Bought protein; also called cyBCMA.Fc

[5] = biological target: T3, biotinylated human BCMA-Fc, Avitag recombinant protein (ACRO Biosystems, #BC7-H82F0) (human, UniProt Q02223 1-54, biotinylated (Avitag)); assay: BLI (Octet Red96e), biotinylated BCMA-Fc on SA sensor, 1:1 global fitting;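 note: Anti-BCMA antibodies analysed as binding partners of the captured BCMA antigen, with reference signals removed by double referencing before kinetic fitting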
T3 construct: extracellular domain; Bought protein; also called huBCMA.Fc; recombinant human BCMA-ECD-Fc
T3 sequence (looked up): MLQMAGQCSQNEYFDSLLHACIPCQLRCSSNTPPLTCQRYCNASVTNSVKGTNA

[6] = biological target: T1, human BCMA on NCI-H929 cells (ATCC, …); assay: cell-based or functional assay; remark: listed apart in the source
[7] = biological target: T4, cynomolgus monkey CD3 (TCR/CD3 complex) on cynomolgus monkey T cells (cynomolgus monkey); assay: flow cytometry (FACS) on cynomolgus monkey T cells
T4 construct: whole, on cells
T4 sequence (Q95LI5 22-198, one chain of several): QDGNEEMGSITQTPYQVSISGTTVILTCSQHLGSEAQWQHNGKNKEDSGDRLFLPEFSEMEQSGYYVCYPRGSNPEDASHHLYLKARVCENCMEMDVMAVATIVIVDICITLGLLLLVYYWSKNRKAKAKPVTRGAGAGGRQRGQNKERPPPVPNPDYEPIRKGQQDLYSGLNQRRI

[8] = biological target: T5, human CD3 (TCR/CD3 complex) on human T cells (human, UniProt P07766 23-207); assay: flow cytometry (FACS) on human T cells, Experiment 3
T5 construct: whole, on cells
T5 sequence (P07766 23-207, one chain of several): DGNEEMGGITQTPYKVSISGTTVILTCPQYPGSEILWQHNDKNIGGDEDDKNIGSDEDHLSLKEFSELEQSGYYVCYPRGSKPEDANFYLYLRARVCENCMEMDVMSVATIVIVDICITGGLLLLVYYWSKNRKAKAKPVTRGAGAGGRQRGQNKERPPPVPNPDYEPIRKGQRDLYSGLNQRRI

[9] = biological target: T6, cynomolgus monkey BCMA on cells (HEK293T/cyno BCMA) (cynomolgus monkey, UniProt A0A2K5UD97 1-183); assay: FACS, HEK293T/cyno BCMA cells
T6 construct: whole, on cells
T6 sequence (A0A2K5UD97 entry or part of it): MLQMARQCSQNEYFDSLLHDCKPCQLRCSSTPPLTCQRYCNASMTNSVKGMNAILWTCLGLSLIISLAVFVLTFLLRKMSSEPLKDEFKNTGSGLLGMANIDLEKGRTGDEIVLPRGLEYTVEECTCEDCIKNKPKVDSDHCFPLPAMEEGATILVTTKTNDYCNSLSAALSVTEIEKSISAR

[10] = biological target: T7, cynomolgus monkey BCMA (ACRO Biosystems, #BCA-C82F4) (cynomolgus monkey, UniProt A0A2K5UD97 1-53); assay: BLI, Octet Red96e
T7 construct: bought; also called cyBCMA.Fc

[11] = biological target: T8, biotinylated human CTLA4-Fc protein (ACRO Biosystems, #CT4-H82F3) (human, UniProt P16410 36-161, biotinylated); assay: competition ELISA: coated human B7-1-Fc, biotinylated human CTLA4-Fc, Experiment 1
T8 construct: Bought protein; also called human CTLA4 protein
T8 sequence (P16410 36-161 limits assumed): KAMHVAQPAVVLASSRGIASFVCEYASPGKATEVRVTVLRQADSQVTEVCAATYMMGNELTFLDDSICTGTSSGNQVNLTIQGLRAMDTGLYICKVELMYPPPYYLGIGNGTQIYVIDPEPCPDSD

[12] = biological target: T9, human CTLA4 on CHO-K1/hCTLA4 cells (human, UniProt P16410 36-223); assay: flow cytometry on CHO-K1/hCTLA4 cells, Experiment 1
T9 construct: whole, on cells; CHO-K1 cell line highly expressing human CTLA4; also called human CTLA4 cell
T9 sequence (P16410 36-223): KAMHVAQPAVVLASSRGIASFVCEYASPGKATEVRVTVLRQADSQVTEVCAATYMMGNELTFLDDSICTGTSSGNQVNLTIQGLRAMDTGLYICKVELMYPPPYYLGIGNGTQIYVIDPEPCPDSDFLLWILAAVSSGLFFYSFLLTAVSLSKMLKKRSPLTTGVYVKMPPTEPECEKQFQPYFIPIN

[13] = biological target: T9, human CTLA4 on CHO-K1/hCTLA4 cells; assay: flow cytometry competition: biotinylated human B7-1-Fc on CHO-K1/hCTLA4 cells, Experiment 2
[14] = biological target: T9, human CTLA4 on CHO-K1/hCTLA4 cells; assay: flow cytometry on CHO-K1/hCTLA4 cells, Experiment 3
[15] = biological target: T9, human CTLA4 on CHO-K1/hCTLA4 cells; assay: flow cytometry competition: biotinylated human B7-1-Fc on CHO-K1/hCTLA4 cells, Experiment 1
[16] = biological target: T8, biotinylated human CTLA4-Fc protein …; assay: competition ELISA: coated human B7-1-Fc, biotinylated human CTLA4-Fc, Experiment 2
[17] = biological target: T9, human CTLA4 on CHO-K1/hCTLA4 cells; assay: flow cytometry on CHO-K1/hCTLA4 cells, Experiment 2

B1: PR002199, BCMA × CD3 bispecific antibody derived from WO2019133761A1 (bispecific antibody, human IgG1, kappa, L234A L235A)
chain 1: not shown
chain 2: EVQLVESGGGLVQPGRSLRLSCAASGFTFDDYAMHWVRQAPGKGLEWVSGISWNSGSIGYADSVKGRFTISRDNAKNSLYLQMNSLRAEDTALYYCAKDSRGYGDYRLGGAYWGQGTLVTVSSASTKGPSVFPLAPSSKSTSGGTAALGCLVKDYFPEPVTVSWNSGALTSGVHTFPAVLQSSGLYSLSSVVTVPSSSLGTQTYICNVNHKPSNTKVDKKVEPKSCDKTHTCPPCPAPEAAGGPSVFLFPPKPKDTLMISRTPEVTCVVVDVSHEDPEVKFNWYVDGVEVHNAKTKPREEQYNSTYRVVSVLTVLHQDWLNGKEYKCKVSNKALGAPIEKTISKAKGQPREPQVYTLPPCREEMTKNQVSLWCLVKGFYPSDIAVEWESNGQPENNYKTTPPVLDSDGSFFLYSKLTVDKSRWQQGNVFSCSVMHEALHNHYTQKSLSLSPGK
chain 3: EVQLLESGGGLVQPGGSLRLSCAASGFTVSSYGMSWVRQAPGKGPEWVSGIRGSDGSTYYADSVKGRFTISRDNSKNTLYLQMNSLRAEDTAVYYCAKQGENDGPFDHRGQGTLVTVSSGGGGSEVQLLESGGGLVQPGGSLRLSCAASGFTVSSYGMSWVRQAPGKGPEWVSGIRGSDGSTYYADSVKGRFTISRDNSKNTLYLQMNSLRAEDTAVYYCAKQGENDGPFDHRGQGTLVTVSSASEPKSSDKTHTCPPCPAPEAAGGPSVFLFPPKPKDTLMISRTPEVTCVVVDVSHEDPEVKFNWYVDGVEVHNAKTKPREEQYNSTYRVVSVLTVLHQDWLNGKEYKCKVSNKALGAPIEKTISKAKGQPREPQVCTLPPSREEMTKNQVSLSCAVKGFYPSDIAVEWESNGQPENNYKTTPPVLDSDGSFFLVSKLTVDKSRWQQGNVFSCSVMHEALHNHYTQKSLSLSPGK
notes: Three polypeptide chains; also called Positive control 2
For B1, the “Killing EC50 (nM), PBMC + NCI-H929, + 62.5 ng/ml sBCMA” value [1] was 0.8 nM, the “Killing EC50 (nM), PBMC + NCI-H929, + 125 ng/ml sBCMA” value [1] was 1 nM and the “Killing EC50 (nM), PBMC + NCI-H929, + 250 ng/ml sBCMA” value [1] was 3.5 nM. For the same binder, the “Killing EC50 (nM), PBMC + NCI-H929, + 500 ng/ml sBCMA” value [1] was 7.7 nM, the “Killing EC50 (nM), PBMC + NCI-H929, no sBCMA” value [1] was 0.2 nM and the “IFN-γ release, EC50” value [2] was 261 pM. The “IFN-γ release, Maximum” value [2] was 658 pg/mL, the “IL-2 release, EC50” value [2] was 312 pM and the “IL-2 release, Maximum” value [2] was 25.8 pg/mL. For the same binder, the “IL-6 release, EC50” value [2] was 341 pM, the “IL-6 release, Maximum” value [2] was 71.4 pg/mL and the “IL-10 release, EC50” value [2] was 335 pM. The “IL-10 release, Maximum” value [2] was 190 pg/mL, the “NCI-H929 killing, EC50” value [2] was 115 pM and the “NCI-H929 killing, Maximum killing rate %” value [2] was 62%. The “TNF-α release, EC50” value [2] was 224 pM, the “TNF-α release, Maximum” value [2] was 1020 pg/mL and the “IFN-γ release, EC50” value [3] was 483 pM. For the same binder, the “IFN-γ release, Maximum” value [3] was 1020 pg/mL, the “IL-2 release, EC50” value [3] was 2270 pM and the “IL-2 release, Maximum” value [3] was 21.5 pg/mL. For the same binder, the “IL-6 release, EC50” value [3] was 13100 pM, the “IL-6 release, Maximum” value [3] was 245 pg/mL and the “IL-10 release, EC50” value [3] was 861 pM. The “IL-10 release, Maximum” value [3] was 583 pg/mL, the “NCI-H929 killing, EC50” value [3] was 160 pM and the “NCI-H929 killing, Maximum killing rate %” value [3] was 61.2%. The “TNF-α release, EC50” value [3] was 464 pM, the “TNF-α release, Maximum” value [3] was 608 pg/mL and the binding result [4] was “no binding”. It also gave a Kd [5] of 45.2 pM, a koff [5] of 2.46e-05 s⁻¹ and a kon [5] of 545000 M⁻¹ s⁻¹. For the same binder, the “Killing EC50 (nM), PBMC + NCI-H929, + 10 ng/mL sBAFF” value [6] was 0.063 nM, the “Killing EC50 (nM), PBMC + NCI-H929, + 10 ng/ml sAPRIL” value [6] was 0.096 nM and the “Killing EC50 (nM), PBMC + NCI-H929, + 100 ng/mL sBAFF” value [6] was 0.076 nM. For the same binder, the “Killing EC50 (nM), PBMC + NCI-H929, + 100 ng/ml sAPRIL” value [6] was 0.253 nM, the “Killing EC50 (nM), PBMC + NCI-H929, no soluble ligand” value [6] was 0.103 nM and the “Maximum MFI” value [7] was 1110 MFI. The “Maximum MFI” value [8] was 6850 MFI.

B2: PR002199, BCMA×CD3 bispecific antibody derived from WO2019133761A1 (bispecific antibody, human IgG1, kappa, L234A L235A)
chain 1: not shown
chain 2: B1 chain 2
chain 3: B1 chain 3
notes: also called positive control 2
B2: no binding [9]; no binding [10].

B3: Anti-CTLA4 heavy-chain antibody CL5v3, hIgG1 (antibody, V domains shown)
VH: EVQLVESGGGLIQPGGSLRLSCAVSGFTVSKNYMSWVRQAPGKGLEWVSVVYSGGSKTYADSVKGRFTISRDNSKNTLYLQMNSLRAEDTAVYYCARAVPHSPSSFDIWGQGTMVTVSS
notes: Heavy-chain-only antibody (HCAb), no light chain; parent of the CTLA4 end of the HER2xCTLA4 bispecifics; also called PR000184
For B3, the IC50 [11] was 2460 pM, the EC50 [12] was 1590 pM and the “Maximum MFI” value [12] was 214 MFI. For the same binder, the IC50 [13] was 239 pM, the EC50 [14] was 3050 pM and the IC50 [15] was 1680 pM. The Maximum inhibition rate [15] was 99.6%, the IC50 [16] was 1690 pM and the EC50 [17] was 1790 pM. The “Maximum MFI” value [17] was 1080 MFI.
